Assay results as given in patent US20130210709A1 (ANCHOR THERAPEUTICS, published 2013).
Ends that are not written are not given here. * marks the point of attachment. Palmitoyl = CCCCCCCCCCCCCCCC(=O)*

B1: CXCR4 i2 loop compound 76 (peptide)
peptide: DRYLAIVHATNSQRPRKLL-NH2
modifications: not fully specified (N-terminus); also: second lipid on tether backbone (C31H62NC(O)- tether)
B2: CXCR4 i2 loop compound 80 (peptide)
peptide: Palmitoyl-HATNSQRPRKLLA-NH2
SMILES: CCCCCCCCCCCCCCCC(=O)N[C@@H](Cc1c[nH]cn1)C(=O)N[C@@H](C)C(=O)N[C@H](C(=O)N[C@@H](CC(N)=O)C(=O)N[C@@H](CO)C(=O)N[C@@H](CCC(N)=O)C(=O)N[C@@H](CCCNC(=N)N)C(=O)N1CCC[C@H]1C(=O)N[C@@H](CCCNC(=N)N)C(=O)N[C@@H](CCCCN)C(=O)N[C@@H](CC(C)C)C(=O)N[C@@H](CC(C)C)C(=O)N[C@@H](C)C(N)=O)[C@@H](C)O
B3: CXCR4 i2 loop compound 78 (peptide)
peptide: Palmitoyl-VHATNSQRPRKLLA-NH2
SMILES: CCCCCCCCCCCCCCCC(=O)N[C@H](C(=O)N[C@@H](Cc1c[nH]cn1)C(=O)N[C@@H](C)C(=O)N[C@H](C(=O)N[C@@H](CC(N)=O)C(=O)N[C@@H](CO)C(=O)N[C@@H](CCC(N)=O)C(=O)N[C@@H](CCCNC(=N)N)C(=O)N1CCC[C@H]1C(=O)N[C@@H](CCCNC(=N)N)C(=O)N[C@@H](CCCCN)C(=O)N[C@@H](CC(C)C)C(=O)N[C@@H](CC(C)C)C(=O)N[C@@H](C)C(N)=O)[C@@H](C)O)C(C)C
B4: CXCR4 i2 loop compound 79 (peptide)
peptide: Palmitoyl-HATNSQRPRKL-NH2
SMILES: CCCCCCCCCCCCCCCC(=O)N[C@@H](Cc1c[nH]cn1)C(=O)N[C@@H](C)C(=O)N[C@H](C(=O)N[C@@H](CC(N)=O)C(=O)N[C@@H](CO)C(=O)N[C@@H](CCC(N)=O)C(=O)N[C@@H](CCCNC(=N)N)C(=O)N1CCC[C@H]1C(=O)N[C@@H](CCCNC(=N)N)C(=O)N[C@@H](CCCCN)C(=O)N[C@@H](CC(C)C)C(N)=O)[C@@H](C)O
B5: CXCR4 i2 loop compound 81 (peptide)
peptide: Palmitoyl-HATNSQRPRKLLAE-NH2
SMILES: CCCCCCCCCCCCCCCC(=O)N[C@@H](Cc1c[nH]cn1)C(=O)N[C@@H](C)C(=O)N[C@H](C(=O)N[C@@H](CC(N)=O)C(=O)N[C@@H](CO)C(=O)N[C@@H](CCC(N)=O)C(=O)N[C@@H](CCCNC(=N)N)C(=O)N1CCC[C@H]1C(=O)N[C@@H](CCCNC(=N)N)C(=O)N[C@@H](CCCCN)C(=O)N[C@@H](CC(C)C)C(=O)N[C@@H](CC(C)C)C(=O)N[C@@H](C)C(=O)N[C@@H](CCC(=O)O)C(N)=O)[C@@H](C)O

Molecular target: CXCR4 receptor (human, UniProt P61073 1-352)
Sequence (P61073 whole entry): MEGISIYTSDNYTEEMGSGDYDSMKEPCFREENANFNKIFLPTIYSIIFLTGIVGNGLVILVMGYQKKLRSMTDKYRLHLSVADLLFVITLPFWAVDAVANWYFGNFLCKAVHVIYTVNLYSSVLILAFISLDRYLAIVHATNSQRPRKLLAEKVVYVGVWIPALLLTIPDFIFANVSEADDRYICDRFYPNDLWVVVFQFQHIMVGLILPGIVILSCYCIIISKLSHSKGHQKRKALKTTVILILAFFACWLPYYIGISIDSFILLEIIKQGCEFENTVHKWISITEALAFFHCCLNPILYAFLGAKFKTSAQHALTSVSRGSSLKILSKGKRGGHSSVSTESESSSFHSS
Assay: cell-based or functional assay

Binder | Peak Ratio, chemotaxis, SUPB-15, 1.0 uM | AUC (% of vehicle), chemotaxis, SUPB-15, 1.0 uM | Max (% of vehicle), chemotaxis, SUPB-15, 1.0 uM
B1 | 1 | – | –
B2 | 0.2 | 102 % of vehicle | 69 % of vehicle
B3 | 0.2 | 71.8 % of vehicle | 72.3 % of vehicle
B4 | 0.2 | 109 % of vehicle | 110 % of vehicle
B5 | 0.2 | 79.8 % of vehicle | 76.5 % of vehicle
